T1: LEF6 82-173 (Autographa californica multiple …, UniProt S5G646 82-173)
T1 sequence: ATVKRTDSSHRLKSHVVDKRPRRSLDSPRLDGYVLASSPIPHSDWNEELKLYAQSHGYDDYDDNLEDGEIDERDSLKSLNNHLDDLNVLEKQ

T2: LEF6 1-90 (E. coli) (Autographa californica multiple …, UniProt S5G646 1-90)
T2 sequence: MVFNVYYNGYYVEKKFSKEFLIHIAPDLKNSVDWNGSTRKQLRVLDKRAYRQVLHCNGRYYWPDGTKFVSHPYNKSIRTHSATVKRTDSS

T3: LEF6 1-90 (High Five) (Autographa californica multiple …, UniProt S5G646 1-90)
T3 sequence: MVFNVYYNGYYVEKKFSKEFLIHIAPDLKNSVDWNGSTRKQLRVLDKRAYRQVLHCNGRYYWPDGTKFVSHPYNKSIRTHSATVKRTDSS

T4: LEF-6 (non-phosphorylated, E. coli) (Autographa californica multiple …, UniProt S5G646 1-173)
T4 sequence: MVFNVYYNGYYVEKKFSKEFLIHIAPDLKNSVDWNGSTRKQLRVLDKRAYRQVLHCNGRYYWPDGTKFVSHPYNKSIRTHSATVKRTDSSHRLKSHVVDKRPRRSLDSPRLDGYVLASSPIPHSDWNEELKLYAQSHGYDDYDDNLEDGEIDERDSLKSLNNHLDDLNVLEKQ

T5: LEF6 1-90 (host not stated) (Autographa californica multiple …, UniProt S5G646 1-90)
T5 sequence: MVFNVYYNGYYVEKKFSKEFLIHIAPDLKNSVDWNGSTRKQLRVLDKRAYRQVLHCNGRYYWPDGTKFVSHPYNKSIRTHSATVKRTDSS


How the values were obtained:
LEF6 82-173 = target: T1, LEF6 82-173; test: EMSA; Anisotropy: 20 mM Tris-HCl pH 7.5, 20 mM NaCl, 5 nM FAM-ssRNA, 28 C; EMSA: 10 mM Tris pH 7.5, 20 mM KCl, 1 mM MgCl2, 1 mM DTT, 20 uM RNA, 22 C, 1% agarose/TAE.; settings: protein: recombinant; tags: His; label: FAM (anisotropy); EMSA detected by ethidium bromide
LEF6 1-90 (E. coli) = target: T2, LEF6 1-90 (E. coli); test: as above; settings: protein: recombinant; tags: His; label: FAM (anisotropy); EMSA detected by ethidium bromide
LEF6 1-90 (High Five) = target: T3, LEF6 1-90 (High Five); test: as above; settings: protein: recombinant; tags: His; label: FAM (anisotropy); EMSA detected by ethidium bromide
[1] = target: T4, LEF-6 (non-phosphorylated, E. coli); test: fluorescence anisotropy; Anisotropy: 20 mM Tris-HCl pH 7.5, 20 mM NaCl, 5 nM FAM-ssRNA, 28 C; EMSA: 10 mM Tris pH 7.5, 20 mM KCl, 1 mM MgCl2, 1 mM DTT, 20 uM RNA, 22 C, 1% agarose/TAE.; settings: protein: recombinant, tags: His
[2] = target: T5, LEF6 1-90 (host not stated); test: as above; settings: protein: recombinant, tags: His
[3] = label: FAM (anisotropy), EMSA detected by ethidium bromide

| Binder | binding result (LEF6 82-173) | binding result (LEF6 1-90 (E. coli)) | binding result (LEF6 1-90 (High Five)) | binding result [1, 3] | binding result [2, 3] | binding result ([1]; label: FAM) | binding result ([2]; label: FAM) |
| --- | --- | --- | --- | --- | --- | --- | --- |
| GACAGGUCGCCGAAGUUACAGAACACG (ssRNA) [p6.9 ssRNA] | no binding | binds | binds | binds | binds | – | – |
| UUUUUUUUUUCUCUGCUCGACG (ssRNA) [unrelated ssRNA] | – | – | – | – | – | binds | binds |
| UUAUAACCAUCCCACCCCGGAUGGAGC (ssRNA) [ie1 ssRNA] | – | – | – | – | – | binds | binds |
| CGGUUUGCCCGCUCAAUUGACCGAUCU (ssRNA) [p10 ssRNA] | – | – | – | binds | binds | – | – |

From PMC12455930, “LEF-6 phosphorylation regulates the binding and trafficking of baculovirus late gene transcripts”
